Binding result and Ka data for five molecules are collected here from paper doi:10.1101/2025.07.11.664400 (bioRxiv, 2025).

B1: RecC (natural protein)
chain: MLRVYHSNRLDVLEALMEFIVERERLDDPFEPEMILVQSTGMAQWLQMTLSQKFGIAANIDFPLPASFIWDMFVRVLPEIPKESAFNKQSMSWKLMTLLPQLLEREDFTLLRHYLTDDSDKRKLFQLSSKAADLFDQYLVYRPDWLAQWETGHLVEGLGEAQAWQAPLWKALVEYTHQLGQPRWHRANLYQRFIETLESATTCPPGLPSRVFICGISALPPVYLQALQALGKHIEIHLLFTNPCRYYWGDIKDPAYLAKLLTRQRRHSFEDRELPLFRDSENAGQLFNSDGEQDVGNPLLASWGKLGRDYIYLLSDLESSQELDAFVDVTPDNLLHNIQSDILELENRAVAGVNIEEFSRSDNKRPLDPLDSSITFHVCHSPQREVEVLHDRLLAMLEEDPTLTPRDIIVMVADIDSYSPFIQAVFGSAPADRYLPYAISDRRARQSHPVLEAFISLLSLPDSRFVSEDVLALLDVPVLAARFDITEEGLRYLRQWVNESGIRWGIDDDNVRELELPATGQHTWRFGLTRMLLGYAMESAQGEWQSVLPYDESSGLIAELVGHLASLLMQLNIWRRGLAQERPLEEWLPVCRDMLNAFFLPDAETEAAMTLIEQQWQAIIAEGLGAQYGDAVPLSLLRDELAQRLDQERISQRFLAGPVNICTLMPMRSIPFKVVCLLGMNDGVYPRQLAPLGFDLMSQKPKRGDRSRRDDDRYLFLEALISAQQKLYISYIGRSIQDNSERFPSVLVQELIDYIGQSHYLPGDEALNCDESEARVKAHLTCLHTRMPFDPQNYQPGERQSYAREWLPAASQAGKAHSEFVQPLPFTLPETVPLETLQRFWAHPVRAFFQMRLQVNFRTEDSEIPDTEPFILEGLSRYQINQQLLNALVEQDDAERLFRRFRAAGDLPYGAFGEIFWETQCQEMQQLADRVIACRQPGQSMEIDLACNGVQITGWLPQVQPDGLLRWRPSLLSVAQGMQLWLEHLVYCASGGNGESRLFLRKDGEWRFPPLAAEQALHYLSQLIEGYREGMSAPLLVLPESGGAWLKTCYDAQNDAMLDDDSTLQKARTKFLQAYEGNMMVRGEGDDIWYQRLWRQLTPETMEAIVEQSQRFLLPLFRFNQS

The target in one data set is T1, RecB (E. coli, UniProt P08394 1-1180).
T1 sequence: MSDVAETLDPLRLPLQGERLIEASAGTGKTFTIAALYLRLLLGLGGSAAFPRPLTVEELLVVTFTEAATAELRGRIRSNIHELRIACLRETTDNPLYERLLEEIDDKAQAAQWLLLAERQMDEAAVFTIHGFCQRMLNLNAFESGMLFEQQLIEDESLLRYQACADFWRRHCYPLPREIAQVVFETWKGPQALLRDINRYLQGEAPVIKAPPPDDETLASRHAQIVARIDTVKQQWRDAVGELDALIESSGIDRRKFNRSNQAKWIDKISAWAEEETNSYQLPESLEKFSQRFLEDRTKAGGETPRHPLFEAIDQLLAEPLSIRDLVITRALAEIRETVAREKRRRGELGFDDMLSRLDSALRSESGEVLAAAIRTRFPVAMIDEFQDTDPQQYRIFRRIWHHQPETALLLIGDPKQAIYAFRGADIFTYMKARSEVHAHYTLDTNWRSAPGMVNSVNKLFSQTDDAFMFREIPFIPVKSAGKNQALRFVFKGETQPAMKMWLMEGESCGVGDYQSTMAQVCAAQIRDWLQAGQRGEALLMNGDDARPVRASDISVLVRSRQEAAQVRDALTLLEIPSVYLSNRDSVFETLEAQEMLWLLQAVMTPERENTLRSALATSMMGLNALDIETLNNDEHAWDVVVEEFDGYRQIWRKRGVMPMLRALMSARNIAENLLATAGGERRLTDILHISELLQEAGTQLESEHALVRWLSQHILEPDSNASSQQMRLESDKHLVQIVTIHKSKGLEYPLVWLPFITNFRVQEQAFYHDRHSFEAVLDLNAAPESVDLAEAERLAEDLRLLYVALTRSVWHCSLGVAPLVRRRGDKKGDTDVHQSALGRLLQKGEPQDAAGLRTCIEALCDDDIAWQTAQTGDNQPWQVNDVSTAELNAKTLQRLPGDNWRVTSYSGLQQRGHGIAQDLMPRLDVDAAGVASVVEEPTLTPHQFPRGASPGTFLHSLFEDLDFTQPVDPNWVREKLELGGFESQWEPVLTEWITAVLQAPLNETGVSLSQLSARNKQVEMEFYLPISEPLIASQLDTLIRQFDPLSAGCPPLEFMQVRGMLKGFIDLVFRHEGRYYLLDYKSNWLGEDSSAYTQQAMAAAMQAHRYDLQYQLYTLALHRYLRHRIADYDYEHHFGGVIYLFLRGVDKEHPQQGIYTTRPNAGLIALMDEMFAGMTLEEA
The data set can be described thus: AUC.

The data set “RecC” addresses B1. Nature of the data set: AUC.
In another data set the target is RecBΔNucCD (Escherichia coli, UniProt P08394;P07648;P04993 1-929;1-1122;1-608). Nature of the data set: fluorescence competition.
The target in the next data set is RecBCD (Escherichia coli, UniProt P08394;P07648;P04993 1-1180;1-1122;1-608). Nature of the data set: fluorescence competition.

In the case of B1, in the data set with RecB, the binding result is reported as “binds”.

B2: RecD (natural protein)
chain: MKLQKQLLEAVEHKQLRPLDVQFALTVAGDEHPAVTLAAALLSHDAGEGHVCLPLSRLENNEASHPLLATCVSEIGELQNWEECLLASQAVSRGDEPTPMILCGDRLYLNRMWCNERTVARFFNEVNHAIEVDEALLAQTLDKLFPVSDEINWQKVAAAVALTRRISVISGGPGTGKTTTVAKLLAALIQMADGERCRIRLAAPTGKAAARLTESLGKALRQLPLTDEQKKRIPEDASTLHRLLGAQPGSQRLRHHAGNPLHLDVLVVDEASMIDLPMMSRLIDALPDHARVIFLGDRDQLASVEAGAVLGDICAYANAGFTAERARQLSRLTGTHVPAGTGTEAASLRDSLCLLQKSYRFGSDSGIGQLAAAINRGDKTAVKTVFQQDFTDIEKRLLQSGEDYIAMLEEALAGYGRYLDLLQARAEPDLIIQAFNEYQLLCALREGPFGVAGLNERIEQFMQQKRKIHRHPHSRWYEGRPVMIARNDSALGLFNGDIGIALDRGQGTRVWFAMPDGNIKSVQPSRLPEHETTWAMTVHKSQGSEFDHAALILPSQRTPVVTRELVYTAVTRARRRLSLYADERILSAAIATRTERRSGLAALFSSRE
B2: the binding result in the data set with RecC was “binds”.

B3: 3'-dT4 (dsDNA)
DNA 1: CCATGGCTCCTGAGCTAGCTGCAGTAGCCTAAAGGATGAAACTAGGATCTTATGCTCCAGTTTT
DNA 2: CTGGAGCATAAGATCCTAGTTTCATCCTTTAGGCTACTGCAGCTAGCTCAGGAGCCATGGTTTT
B3: the Ka came to 3.3e+08 M⁻¹ with RecBΔNucCD and 4.7e+07 M⁻¹ with RecBCD.

B4: RecB^ΔNuc (RecB with the nuclease domain, residues 930-1180, deleted) (domain or fragment)
chain: MSDVAETLDPLRLPLQGERLIEASAGTGKTFTIAALYLRLLLGLGGSAAFPRPLTVEELLVVTFTEAATAELRGRIRSNIHELRIACLRETTDNPLYERLLEEIDDKAQAAQWLLLAERQMDEAAVFTIHGFCQRMLNLNAFESGMLFEQQLIEDESLLRYQACADFWRRHCYPLPREIAQVVFETWKGPQALLRDINRYLQGEAPVIKAPPPDDETLASRHAQIVARIDTVKQQWRDAVGELDALIESSGIDRRKFNRSNQAKWIDKISAWAEEETNSYQLPESLEKFSQRFLEDRTKAGGETPRHPLFEAIDQLLAEPLSIRDLVITRALAEIRETVAREKRRRGELGFDDMLSRLDSALRSESGEVLAAAIRTRFPVAMIDEFQDTDPQQYRIFRRIWHHQPETALLLIGDPKQAIYAFRGADIFTYMKARSEVHAHYTLDTNWRSAPGMVNSVNKLFSQTDDAFMFREIPFIPVKSAGKNQALRFVFKGETQPAMKMWLMEGESCGVGDYQSTMAQVCAAQIRDWLQAGQRGEALLMNGDDARPVRASDISVLVRSRQEAAQVRDALTLLEIPSVYLSNRDSVFETLEAQEMLWLLQAVMTPERENTLRSALATSMMGLNALDIETLNNDEHAWDVVVEEFDGYRQIWRKRGVMPMLRALMSARNIAENLLATAGGERRLTDILHISELLQEAGTQLESEHALVRWLSQHILEPDSNASSQQMRLESDKHLVQIVTIHKSKGLEYPLVWLPFITNFRVQEQAFYHDRHSFEAVLDLNAAPESVDLAEAERLAEDLRLLYVALTRSVWHCSLGVAPLVRRRGDKKGDTDVHQSALGRLLQKGEPQDAAGLRTCIEALCDDDIAWQTAQTGDNQPWQVNDVSTAELNAKTLQRLPGDNWRVTSYSGLQQRGHGIAQDLMPRLDVDAA
As to B4, the binding result with RecC is “binds”.

B5: 3'-dT2 (dsDNA)
DNA 1: CCATGGCTCCTGAGCTAGCTGCAGTAGCCTAAAGGATGAAACTAGGATCTTATGCTCCAGTT
DNA 2: CTGGAGCATAAGATCCTAGTTTCATCCTTTAGGCTACTGCAGCTAGCTCAGGAGCCATGGTT
Regarding B5, the results for the Ka in the data set with RecBΔNucCD and with RecBCD were 9.6e+07 M⁻¹ and 2.1e+07 M⁻¹, respectively.
